The record followed here is patent US20240239878A1 (SHANGHAI QILU PHARMACEUTICAL RESEARCH AND DEVELOPMENT CENTRE, published 2024).

Assay [1] addresses T1, Cynomolgus monkey DLL3 on HEK293 cells (HEK293-cyno DLL3) (Cynomolgus monkey, UniProt Q9NYJ7 27-618 (human entry)).
T1 chain: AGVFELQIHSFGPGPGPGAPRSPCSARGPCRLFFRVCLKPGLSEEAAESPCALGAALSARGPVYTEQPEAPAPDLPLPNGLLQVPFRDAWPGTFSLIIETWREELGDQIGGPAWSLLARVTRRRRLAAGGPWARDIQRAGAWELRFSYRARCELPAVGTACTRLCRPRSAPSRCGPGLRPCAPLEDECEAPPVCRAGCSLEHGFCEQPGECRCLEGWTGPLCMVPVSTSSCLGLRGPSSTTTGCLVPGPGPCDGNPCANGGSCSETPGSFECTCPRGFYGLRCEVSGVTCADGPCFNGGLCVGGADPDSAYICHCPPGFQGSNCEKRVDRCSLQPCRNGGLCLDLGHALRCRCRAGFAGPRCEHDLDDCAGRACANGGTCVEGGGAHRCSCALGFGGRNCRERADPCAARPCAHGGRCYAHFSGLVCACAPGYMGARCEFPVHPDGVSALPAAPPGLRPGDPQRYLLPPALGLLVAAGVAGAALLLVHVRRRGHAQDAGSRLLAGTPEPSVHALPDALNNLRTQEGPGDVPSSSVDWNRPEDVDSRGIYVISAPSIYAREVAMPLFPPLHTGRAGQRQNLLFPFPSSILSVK
As to the kind of experiment: flow cytometry, HEK293-cyno DLL3 cells. The procedure:
SHP-77 and HEK293-cyno DLL3 cells were cultured. The culture medium for SHP-77 cells were RPMI1640+10% FBS, and the culture medium for HEK293 cyno DLL3 cells were DMEM+10% FBS+200 μg/ml Hygromycin. The cells were cultured in a T75 cell culture flask at a 37° C. 5% CO₂ incubator. When using cells, they are washed with sterile DPBS, digested with 0.25% trypsin EDTA for about 5 minutes, and then stopped with a complete medium.
The digested cells were centrifuged at 1000 rpm for 5 min at room temperature. The supernatant was discarded and the cells were resuspended in 100 μL of 1% BSA (in PBS). The cells were counted and adjusted to a cell density of 1E6/m. The dilute cells were seeded in a 96-well round-bottom culture plate (corning 3799), and centrifuged at 1500 rpm for 5 min at 4° C. The supernatant was discarded and the cells were stored at 4° C. until use. Antibody samples to be tested were diluted with 1% BSA (in PBS) at a starting concentration of 100 nM, downwards by a 10-fold gradient for 7 concentrations. The cells were resuspended with the diluted antibody at 100 μL/well and incubated for 1 hour at 4° C. The cells were centrifuged at 1500 rpm for 5 minutes at 4° C. and the supernatant was discarded. The cells were resuspended and washed with 160 μL of 1% BSA (in PBS), centrifuged at 1500 rpm for 5 minutes at 4° C. The supernatant was discarded. The secondary antibody (goat anti human IgG Fc PE) was diluted 1:200 with 1% BSA (in PBS) according to the manufacturer's instructions and the cells were resuspended with the diluted secondary antibody, 100 μL/well, and incubated for 0.5 h at 4° C. The cells were centrifuged at 1500 rpm for 5 minutes at 4° C. and the supernatant was discarded. The cells were resuspended and washed with 160 μL of 1% BSA (in PBS), centrifuged at 1500 rpm for 5 minutes at 4° C. The supernatant was discarded. The cells were resuspended in 100 μL of 1% BSA (in PBS), and filtered across a 300 mesh gauze. The mean fluorescence intensity of the PE channels was measured by flow cytometry.
The analyzed mean fluorescence intensity was imported into Graphpad to analyze the median-binding concentration (hereinafter referred to as EC50) of antibody and cell and the top mean fluorescence intensity (Top MFI).

The target of assay [2] is T2, human DLL3 antigen protein (Kactus Biosystems, Cat. No. DLL-HM103) (human, UniProt Q9NYJ7 27-492).
T2 sequence: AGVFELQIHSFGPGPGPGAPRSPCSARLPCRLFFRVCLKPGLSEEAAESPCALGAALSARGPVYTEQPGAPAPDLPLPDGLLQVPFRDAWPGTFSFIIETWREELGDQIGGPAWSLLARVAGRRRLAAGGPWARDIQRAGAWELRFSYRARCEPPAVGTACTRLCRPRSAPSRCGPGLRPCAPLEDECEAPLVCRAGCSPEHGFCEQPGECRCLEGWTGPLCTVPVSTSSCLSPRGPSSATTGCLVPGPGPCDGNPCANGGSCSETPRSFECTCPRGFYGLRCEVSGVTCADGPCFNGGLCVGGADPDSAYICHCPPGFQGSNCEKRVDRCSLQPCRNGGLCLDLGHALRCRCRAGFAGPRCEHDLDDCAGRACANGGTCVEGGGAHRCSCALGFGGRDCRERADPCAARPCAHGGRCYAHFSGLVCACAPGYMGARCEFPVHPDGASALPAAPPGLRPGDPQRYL
Nature of the assay: SPR (Biacore 8K), antibody captured on anti-human Fc, DLL3 in solution. On the procedure: The affinity and kinetic properties of the humanized anti-DLL3 antibody to human DLL3 were analyzed using a Biacore 8K instrument. CM5 chips were activated with EDC and NHS, followed by immobilization of anti-human Fc murine mAb and blocked with ethanolamine.
Human DLL3 was diluted two-fold serially to serial concentrations (100 nM-0.39 nM) and associated for 90 s and dissociated for 600 s at a flow rate of 50 μL/min.
After completion of each cycle of the experiment, the captured antibody was removed together with the antigen by washing with a 3M MgCl₂ solution at a flow rate of 30 μL/min for 30 s to complete the regeneration of the chip. The raw data were analyzed using Biacore Insight Evaluation Software (3.0.12.15655) software and fitted with a (1:1) Langmuir model.

B1: hDLL3-3-1 camelid-derived humanized anti-DLL3 antibody (antibody, human IgG1, V domains shown)
VH: EVQLVESGGGLVQPGGSLRLSCAASTYTISSGYMGWFRQAPGKEREGVAAIYIGGSTTLYADSVKGRFTISRDNSKNTLYLQMNSLRAEDTAVYYCAAQLRPNSAYHPLDGRKYNYWGQGTLVTVSS
On to B1, for which, in assay [1], the concentration giving a half-maximal response (EC50) was 0.22 nM and the “Top MFI” value came to 346 MFI. In assay [2], the affinity, expressed as Kd, was 0.304 nM; the koff stood at 0.00058 s⁻¹; the kon turned out to be 1.91e+06 M⁻¹ s⁻¹.

B2: hDLL3-3-2 camelid-derived humanized anti-DLL3 antibody (antibody, V domains shown)
VH: EVQLVESGGGLVQPGGSLRLSCKSPTYTISSGYMGWFRQAPGKEREGVAAIYIGGSTTLYADSVKGRFTISRDNSKNTLYLQMNSLRAEDTAVYYCAAQLRPNSAYHPLDGRKYNYWGQGTLVTVSS
As to B2, in assay [1], the response was half-maximal at 0.15 nM (EC50) and the “Top MFI” value was found to be 344 MFI. For the same molecule, in assay [2], the affinity, expressed as Kd, was 0.399 nM; the off-rate (koff) amounted to 0.000776 s⁻¹; the kon is 1.95e+06 M⁻¹ s⁻¹.

B3: DLL3-3 camelid-derived anti-DLL3 chimeric antibody (antibody, human IgG1, V domains shown)
VH: DVQLVESGGGSVQAGGSLKLSCKSPTYTISSGYMGWFRQAPGKEREGVAAIYIGGSTTLYADSVKGRFTISADNAEKTVYLQMNTLKPEDSAMYYCAAQLRPNSAYHPLDGRKYNYWGQGTQVTVSS
B3: in assay [1], the midpoint of the response, the EC50, lay at 0.08 nM and the “Top MFI” value worked out at 379 MFI. Also, in assay [2], binding was put at a Kd of 0.127 nM, the koff came out at 0.000274 s⁻¹ and the kon was determined as 2.15e+06 M⁻¹ s⁻¹.

B4: DLL3-122 camelid-derived anti-DLL3 chimeric antibody (antibody, human IgG1, V domains shown)
VH: QVQLVESGGGSVQAGGSLRLSCTASGDTYRSYCMGWFRKAPGKEREGVADIVSDGSTSYADSVKGRFTISKDNAKNTLYLQMNSLKPEDTAMYYCAVDRGGSGGYCYTGRYDYWGQGTQVTVSS
As to B4, in assay [1], the midpoint of the response, the EC50, lay at 0.58 nM and the “Top MFI” value turned out to be 351 MFI. For the same molecule, in assay [2], binding was characterised by a dissociation constant (Kd) of 4.21 nM, the koff was 0.000392 s⁻¹ and the kon came to 93200 M⁻¹ s⁻¹.

B5: hDLL3-122 camelid-derived humanized anti-DLL3 antibody (antibody, V domains shown)
VH: EVQLVESGGGLVQPGGSLRLSCAASGDTYRSYCMGWFRQAPGKEREGVADIVSDGSTSYADSVKGRFTISRDNSKNTLYLQMNSLRAEDTAVYYCAVDRGGSGGYCYTGRYDYWGQGTLVTVSS
With B5, in assay [1], the EC50 stood at 0.99 nM and the “Top MFI” value was 351 MFI. In assay [2], this molecule showed a Kd of 4.73 nM, a koff of 0.000466 s⁻¹ and a kon of 98500 M⁻¹ s⁻¹.

B6: DLL3-26 camelid-derived anti-DLL3 chimeric antibody (antibody, human IgG1, V domains shown)
VH: QVQLVESGGGSVQAGGSLRLSCAASGDIYSSSYVGWFRQAPGKEREGVAIIYTSGDSTYYANSVKGRFTISQDKAKKTLYLQMNSLKPEDTAMYYCAARFAIDNSNYWGQGTQVTVSS
Take B6: in assay [1], the concentration giving a half-maximal response (EC50) was determined as 0.54 nM and the “Top MFI” value was found to be 336 MFI. In assay [2], the Kd was 0.0322 nM, the koff was determined as 1.23e-05 s⁻¹ and the kon turned out to be 382000 M⁻¹ s⁻¹.

B7: hDLL3-26 camelid-derived humanized anti-DLL3 antibody (antibody, V domains shown)
VH: EVQLVESGGGLVQPGGSLRLSCAASGDIYSSSYVGWFRQAPGKEREGVAIIYTSGDSTYYADSVKGRFTISRDNSKNTLYLQMNSLRAEDTAVYYCAARFAIDNSNYWGQGTLVTVSS
B7: in assay [1], it took 2.24 nM to reach a half-maximal effect (EC50) and the “Top MFI” value came to 301 MFI. In assay [2], this molecule had a Kd of 1.69 nM, a koff of 0.000355 s⁻¹ and a kon of 210000 M⁻¹ s⁻¹.
